In the supplement of paper PMC7125110:
± gives the standard error. This sample holds only a part of the variants without activity.

B1: glmS ribozyme (parent)
chain: AUAAAAGCGCCAGAACUACAGAAAUGUAGUUGACGAGGAGGAGGUUUAUCGAAUUUUCGGCGGAUGCCUCCAAA

What was measured:
Conditions in all cases: with glucosamine-6-phosphate
glucosamine-6-phosphate [1] = variants of: B1; assay: self-cleavage kobs at 40 uM GlcN6P; higher = faster cleavage; RNA array
In short: (§1)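 Barcoded ribozyme variants on sequenced MiSeq chips were transcribed in situ by E. coli RNA polymerase and followed at 37 °C through a hybridised Cy3 probe. Glucosamine-6-phosphate at 40 μM to 10 mM in HEPES/KCl/Mg(OAc)2 buffer was flowed in, and tiles were imaged over ~14 h. Signals were normalised to baseline and to non-cleaving reference variants, and per-tile medians were fit to one- or two-exponential decays to give kobs. Weighted Michaelis–Menten fits across concentrations gave kcat and KM.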

glucosamine-6-phosphate [2] = variants of: B1; assay: self-cleavage kobs at 160 uM GlcN6P; higher = faster cleavage; RNA array
In short: as §1

glucosamine-6-phosphate [3] = variants of: B1; assay: self-cleavage kobs at 640 uM GlcN6P; higher = faster cleavage; RNA array
In short: as §1

glucosamine-6-phosphate [4] = variants of: B1; assay: self-cleavage kobs at 2500 uM GlcN6P; higher = faster cleavage; RNA array
In short: as §1

glucosamine-6-phosphate [5] = variants of: B1; assay: self-cleavage kobs at 10000 uM GlcN6P; higher = faster cleavage; RNA array
In short: as §1

Variant | self-cleavage kobs at 40 uM GlcN6P (glucosamine-6-phosphate [1]) [s⁻¹] | self-cleavage kobs at 160 uM GlcN6P (glucosamine-6-phosphate [2]) [s⁻¹] | self-cleavage kobs at 640 uM GlcN6P (glucosamine-6-phosphate [3]) [s⁻¹] | self-cleavage kobs at 2500 uM GlcN6P (glucosamine-6-phosphate [4]) [s⁻¹] | self-cleavage kobs at 10000 uM GlcN6P (glucosamine-6-phosphate [5]) [s⁻¹]
G37U C58U G63A | < 1e-05 |  |  |  | 
G41C U49A | < 1e-05 | < 1e-05 | < 1e-05 | < 1e-05 | 
G7U A42U | < 1e-05 |  | < 1e-05 | < 1e-05 | < 1e-05
A14C G29U G38U G44A A64U | < 1e-05 |  |  |  | < 1e-05
U56G U65A | 3.91e-05 ± 7.3e-06 |  | 0.000245 ± 6.8e-05 | 0.000827 ± 0.0002 | 0.0026 ± 0.0003
A6U G35C C61U | < 1e-05 |  |  |  | 
C11U A14C A36G C50A | < 1e-05 |  |  |  | < 1e-05
G9A G41U | < 1e-05 | < 1e-05 | < 1e-05 | < 1e-05 | 
A36G G63A | < 1e-05 | < 1e-05 | < 1e-05 | < 1e-05 | < 1e-05
A6U C10G A42G C50G C67A C70A | 0.000143 ± 4.1e-05 |  |  |  | 9.95e-05 ± 2.4e-05
G43U G59A G60C | < 1e-05 |  |  | < 1e-05 | < 1e-05
A14C A15G C70U | 6.72e-05 ± 1.7e-05 | 0.000124 ± 2.7e-05 | 0.000547 ± 0.00017 | 0.00207 ± 0.00058 | 
A52G A53C | < 1e-05 |  |  |  | 
G41A G43C G62U | < 1e-05 |  |  |  | < 1e-05
C16A G40U A48U | < 1e-05 |  |  |  | < 1e-05
A6U A15G U31G G41A | < 1e-05 |  |  |  | < 1e-05
U31G G66A | 0.000146 ± 2.4e-05 |  | 0.0011 ± 0.00039 | 0.00151 ± 0.00042 | 0.00839 ± 0.0014
U31G G44U C61U | < 1e-05 |  |  |  | < 1e-05
G29A C34A | < 1e-05 | < 1e-05 | < 1e-05 | < 1e-05 | < 1e-05
C61U A64C | < 1e-05 |  |  | < 1e-05 | < 1e-05
A33G G41A | < 1e-05 | < 1e-05 |  |  | < 1e-05
A6C A14U G41U C70U | < 1e-05 |  |  |  | 
G43C A53C U56C | < 1e-05 | < 1e-05 |  | < 1e-05 | < 1e-05
A6G C10U A39G C58A | < 1e-05 |  |  | < 1e-05 | < 1e-05

Variant | self-cleavage kobs at 40 uM GlcN6P (glucosamine-6-phosphate [1]) [s⁻¹] | self-cleavage kobs at 160 uM GlcN6P (glucosamine-6-phosphate [2]) [s⁻¹] | self-cleavage kobs at 640 uM GlcN6P (glucosamine-6-phosphate [3]) [s⁻¹] | self-cleavage kobs at 2500 uM GlcN6P (glucosamine-6-phosphate [4]) [s⁻¹] | self-cleavage kobs at 10000 uM GlcN6P (glucosamine-6-phosphate [5]) [s⁻¹]
A42G C68U | 0.000563 ± 7.3e-05 | 0.000735 ± 0.00016 | 0.00237 ± 0.00041 |  | 0.0168 ± 0.0034
C10G A33G A52U C58U A64U | < 1e-05 |  |  |  | 
A6U G51A | < 1e-05 |  |  |  | < 1e-05
A33C G60U | < 1e-05 | < 1e-05 | < 1e-05 |  | < 1e-05
C11U A48G A53G | < 1e-05 |  |  |  | < 1e-05
C8A A15G G60A | < 1e-05 |  | < 1e-05 | < 1e-05 | 
A12U G44U U57A G59A | < 1e-05 |  |  |  | < 1e-05
C34U G59C | < 1e-05 | < 1e-05 | < 1e-05 | < 1e-05 | < 1e-05
C11U C34U | < 1e-05 |  | < 1e-05 |  | < 1e-05
A12C A15C U47A U49A | < 1e-05 |  |  |  | < 1e-05
C8U A12C C61G | < 1e-05 |  |  | < 1e-05 | < 1e-05
C10U A36G C71G | < 1e-05 |  |  |  | < 1e-05
G35U U54C U56G A64U C70U | < 1e-05 |  |  |  | < 1e-05
C11U A42C U56A C68A | < 1e-05 |  |  |  | < 1e-05
U54G A64C C67A C70U | 0.000151 ± 5.2e-05 | 0.000348 ± 0.00013 | 0.000556 ± 0.00017 | 0.000241 ± 0.0001 | 4.58e-05 ± 1.8e-05
A6U C34U | < 1e-05 | < 1e-05 | < 1e-05 |  | < 1e-05
A6C C8A A48U A52C | < 1e-05 |  |  |  | < 1e-05
C8A U45G U69C C71G | < 1e-05 |  |  |  | 
A42U U57C | < 1e-05 | < 1e-05 | < 1e-05 |  | 
G41A G60U | < 1e-05 |  | < 1e-05 |  | < 1e-05
G32U U56A C61G C67A | 7.99e-05 ± 3e-05 |  |  |  | 
A64G U65C C68A | < 1e-05 |  |  | < 1e-05 | < 1e-05
A6G A14C C34A C68A | < 1e-05 |  |  |  | 
G32U A52C | < 1e-05 |  | < 1e-05 |  | < 1e-05
